Consider seven molecules from patent publication US20260242483A1 (IMCHECK THERAPEUTICS, published 2026).

The target of experiment [1] is T1, recombinant human BTN3A1-His (Sino Biological Cat. No. 15973-H08H) (human, UniProt O00481 30-254).
T1 construct: Bought protein; also called BTN3A1 His-tagged antigen; CD277; not shown: C-terminal His tag
Description: SPR Biacore single cycle kinetics; BTN3A1-His captured via anti-His, F(ab′)2 analyte, bivalent analyte fit. The procedure:
(§1) All single cycle kinetic experiments were run at 25° C. with HBS-P+ running buffer (pH 7.4) containing 0.1% BSA (GE Healthcare, Little Chalfont, UK).
(§2) BTN3A1 His-tagged antigen (Sino Biological, Beijing, China) was diluted in running buffer to a final concentration of 0.4 μg/ml. At the start of each cycle, BTN3A1-His was captured onto Fc2 of CM5 sensor chip pre-coupled using a His capture kit (GE Healthcare, Little Chalfont, UK) with standard amine chemistry at a flow rate of 10 μl/min. An immobilization level (RL) of ~34 RU, 16 RU or 11 RU, the different theoretical values to obtain a RMax of ~50 RU was used for the analytes Fab, F(ab′) 2 and IgG respectively. The surface was then allowed to stabilize. Single cycle kinetic data was obtained with the purified samples (Fab, F(ab′)₂ and IgG) at a flow rate of 40 μl/min to minimize any potential mass transfer effects. The signal from the reference channel Fc1 (no antigen capture) was subtracted from that of Fc2 to correct for differences in non-specific binding to the reference surface. […] The association phase for the five injections of increasing concentrations was monitored for 240 seconds each time and a single dissociation phase was measured for 1400 seconds following the last injection of analyte. […] The kinetic constants were calculated for each variant (see Tables 10, 11 and 12).
On the technique in general: Surface plasmon resonance follows binding to a sensor surface in real time, without labels.

For experiment [2], the target named is T1, recombinant human BTN3A1-His (Sino …). Briefly: SPR Biacore multi-cycle kinetics; antibody captured on Protein A, BTN3A1-His analyte, 1:1 fit.
The target is the same in experiment [3]. Briefly: SPR Biacore single cycle kinetics; BTN3A1-His captured via anti-His, IgG analyte, bivalent analyte fit. The procedure: as §1
BTN3A1 His-tagged antigen (Sino Biological, Beijing, China) was diluted in running buffer to a final concentration of 0.4 μg/ml. At the start of each cycle, BTN3A1-His was captured onto Fc2 of CM5 sensor chip pre-coupled using a His capture kit (GE Healthcare, Little Chalfont, UK) with standard amine chemistry at a flow rate of 10 μl/min. An immobilization level (RL) of ~34 RU, 16 RU or 11 RU, the different theoretical values to obtain a RMax of ~50 RU was used for the analytes Fab, F(ab′) 2 and IgG respectively. The surface was then allowed to stabilize. Single cycle kinetic data was obtained with the purified samples (Fab, F(ab′)₂ and IgG) at a flow rate of 40 μl/min to minimize any potential mass transfer effects. The signal from the reference channel Fc1 (no antigen capture) was subtracted from that of Fc2 to correct for differences in non-specific binding to the reference surface. The signal for BTN3A1-His blank runs (no analyte) were subtracted to correct for differences in surface stability. The association phase for the five injections of increasing concentrations was monitored for 240 seconds each time and a single dissociation phase was measured for 1400 seconds following the last injection of analyte. Regeneration of the chip surface was conducted using two injections of 10 mM glycine-HCL pH 1.5 followed by a stabilization period of 240 seconds. Raw sensorgrams were fitted with a 1:1 model for Fab samples and with a bivalent analyte model for F(ab′)₂ and IgG samples in agreement with the different valences of the analytes. The kinetic constants were calculated for each variant (see Tables 10, 11 and 12).

The target of experiment [4] is T2, BTN3A1-CFP on HEK293T BTN3KO cells (human, UniProt O00481 30-513).
T2 construct: Transient transfection of BTN3A knock-out HEK293T; also called HEK293T BTN3KO + 3A1-CFP; not shown: CFP fusion partner
T2 sequence (O00481 30-513): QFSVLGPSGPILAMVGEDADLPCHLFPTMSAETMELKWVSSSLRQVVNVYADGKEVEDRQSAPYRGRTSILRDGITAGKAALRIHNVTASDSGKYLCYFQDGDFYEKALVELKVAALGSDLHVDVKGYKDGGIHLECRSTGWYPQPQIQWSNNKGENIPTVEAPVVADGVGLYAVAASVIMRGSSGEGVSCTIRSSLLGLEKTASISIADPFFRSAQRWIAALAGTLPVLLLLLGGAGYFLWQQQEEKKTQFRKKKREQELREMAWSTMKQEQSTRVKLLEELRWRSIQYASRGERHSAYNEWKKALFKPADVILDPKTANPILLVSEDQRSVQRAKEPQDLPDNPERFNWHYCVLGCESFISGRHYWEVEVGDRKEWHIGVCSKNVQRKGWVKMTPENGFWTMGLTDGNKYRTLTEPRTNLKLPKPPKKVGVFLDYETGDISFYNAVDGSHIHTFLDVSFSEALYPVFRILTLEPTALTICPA
Description: flow cytometry on HEK293T BTN3KO transiently transfected with BTN3A1-CFP, gated CFP+ (n = 4). Background: In flow cytometry, cells or beads pass a laser one at a time.

Experiment [5] deals with T3, BTN3A2-CFP on HEK293T BTN3KO cells (human, UniProt P78410 30-334).
T3 construct: Transient transfection of BTN3A knock-out HEK293T; also called HEK293T BTN3KO + 3A2-CFP; not shown: CFP fusion partner
T3 sequence (P78410 30-334): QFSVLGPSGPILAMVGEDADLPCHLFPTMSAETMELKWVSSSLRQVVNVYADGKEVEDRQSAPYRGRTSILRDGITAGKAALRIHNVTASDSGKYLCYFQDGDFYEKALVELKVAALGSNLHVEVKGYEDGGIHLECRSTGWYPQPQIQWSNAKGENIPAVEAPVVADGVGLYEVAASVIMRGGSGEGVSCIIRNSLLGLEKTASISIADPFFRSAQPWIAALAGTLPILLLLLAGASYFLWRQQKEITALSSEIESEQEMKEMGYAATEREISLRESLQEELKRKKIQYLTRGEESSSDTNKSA
Description: flow cytometry on HEK293T BTN3KO transiently transfected with BTN3A2-CFP, gated CFP+ (n = 5).

For experiment [6], the target named is T4, BTN3A3-CFP on HEK293T BTN3KO cells (human, UniProt O00478 30-584).
T4 construct: Transient transfection of BTN3A knock-out HEK293T; also called HEK293T BTN3KO + 3A3-CFP; not shown: CFP fusion partner
T4 sequence (O00478 30-584): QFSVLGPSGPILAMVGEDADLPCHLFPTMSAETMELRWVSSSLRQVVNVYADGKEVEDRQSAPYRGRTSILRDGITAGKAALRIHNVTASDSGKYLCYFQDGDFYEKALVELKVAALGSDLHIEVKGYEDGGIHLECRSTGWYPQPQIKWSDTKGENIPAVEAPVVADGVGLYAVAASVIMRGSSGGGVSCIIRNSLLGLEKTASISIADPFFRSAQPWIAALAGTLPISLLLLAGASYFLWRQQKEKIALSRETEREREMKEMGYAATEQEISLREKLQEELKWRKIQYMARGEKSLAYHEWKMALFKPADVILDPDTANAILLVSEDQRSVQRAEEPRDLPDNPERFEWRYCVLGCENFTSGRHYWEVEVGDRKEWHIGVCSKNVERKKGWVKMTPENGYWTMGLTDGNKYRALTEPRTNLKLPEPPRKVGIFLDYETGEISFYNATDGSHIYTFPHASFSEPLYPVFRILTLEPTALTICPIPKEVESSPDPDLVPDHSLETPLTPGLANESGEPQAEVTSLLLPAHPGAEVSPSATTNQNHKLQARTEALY
Description: flow cytometry on HEK293T BTN3KO transiently transfected with BTN3A3-CFP, gated CFP+ (n = 5).

Experiment [7] addresses T1, recombinant human BTN3A1-His (Sino …). Description: SPR Biacore single cycle kinetics; BTN3A1-His captured via anti-His, IgG analyte, bivalent analyte fit (Kd 1). How it is done: as §1, §2
For experiment [8] the target is unchanged. Briefly: SPR Biacore single cycle kinetics; BTN3A1-His captured via anti-His, IgG analyte, bivalent analyte fit (Ka1). The procedure: as §1, §2

Residue numbers refer to the chain shown, from its start. In names and notes the source's numbering stands.

T1 sequence (O00481 30-254 limits assumed): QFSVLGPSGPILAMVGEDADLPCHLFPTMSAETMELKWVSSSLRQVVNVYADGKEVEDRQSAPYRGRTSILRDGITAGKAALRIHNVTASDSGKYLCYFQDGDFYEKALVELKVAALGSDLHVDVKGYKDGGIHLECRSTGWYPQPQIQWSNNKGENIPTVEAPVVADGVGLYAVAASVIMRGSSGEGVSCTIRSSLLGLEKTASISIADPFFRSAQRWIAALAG

B1: 7.2 VH2/VK1 F(ab′)2 (other)
heavy: QVQLVQSGAEVKKPGASVKLSCKASGYIFTRYYMYWVKQRPGQGLEWIGEINPNNGGTKFNEKFKNRATLTVDKSISTAYMELSRLRSDDTAVYYCSREDDYDGTPFAMDYWGQGTLVTVSS
light: not shown
notes: not shown: IgG4 CH1 and hinge up to the pepsin cleavage site
As to B1, in experiment [1], the “Kd 2” value came to 32.4 s⁻¹.

B2: 7.2 VH2/VK2 F(ab′)2 (other)
heavy: B1 heavy
light: not shown
notes: as for B1
Consider B2, for which, in experiment [1], the “Kd 2” value amounted to 54.6 s⁻¹.

B3: Chimeric 7.2 (VH0/Vκ0) (antibody, V domains shown)
VH: QVQLQQSGAELVKPGASVKLSCKASGYIFTRYYMYWVKQRPGQGLEWIGEINPNNGGTKFNEKFKNKATLTVDKFSSTAYMQLRSLTSEDSAVYYCSREDDYDGTPFAMDYWGQGTSVTVSS
VL: DIQMNQSPSSLSASLGDTITITCHASQNINVWLSWYQQKPGNIPKLLIYKASNLHTGVPSRFTGSGSGTGFTLTISSLQPEDIATYYCQQGQTYPYTFGGGTKLEIK
notes: not used; also called 7.2 VH0/Vk0; chimeric 7.2 antibody
By Kd is commonly meant the free concentration of one partner at which half of the binding sites on the other are occupied at equilibrium, for simple one-to-one binding. For the molecule B3, the Kd in experiment [2] was determined as 0.176 nM.

B4: mAb1 (antibody, human IgG1, kappa)
heavy: QVQLVQSGAEVKKPGASVKLSCKASGYIFTRYYMYWVKQRPGQGLEWIGEINPNNGGTKFNEKFKNRATLTVDKSISTAYMELSRLRSDDTAVYYCSREDDYDGTPFAMDYWGQGTLVTVSSASTKGPSVFPLAPSSKSTSGGTAALGCLVKDYFPEPVTVSWNSGALTSGVHTFPAVLQSSGLYSLSSVVTVPSSSLGTQTYICNVNHKPSNTKVDKRVEPKSCDKTHTCPPCPAPEFEGGPSVFLFPPKPKDTLMISRTPEVTCVVVDVSHEDPEVKFNWYVDGVEVHNAKTKPREEQYNSTYRVVSVLTVLHQDWLNGKEYKCKVSNKALPASIEKTISKAKGQPREPQVYTLPPSREEMTKNQVSLTCLVKGFYPSDIAVEWESNGQPENNYKTTPPVLDSDGSFFLYSKLTVDKSRWQQGNVFSCSVMHEALHNHYTQKSLSLSPG
light: not shown
notes: Humanized 7.2 (VH2/Vk1), silent IgG1 L247F/L248E/P350S, kappa; also called 7.2 VH2/VK1 IgG1; IgG1 7.2 VH2/VK1
What is called EC50 is the concentration at which the effect is half-maximal. A high value points to a less potent agent. B4: the “Kd 2” value in experiment [3] was 44 s⁻¹. In addition, the EC50 was 2.4 µg/mL in experiment [4], 1.88 µg/mL in experiment [5] and 1.75 µg/mL in experiment [6].

B5: mAb2 (antibody, human IgG1, kappa)
heavy: B4 heavy
light: not shown
notes: Humanized 7.2 (VH2/Vk2), silent IgG1 L247F/L248E/P350S, kappa; also called 7.2 VH2/VK2 IgG1; IgG1 7.2 VH2/VK2
With B5, in experiment [3], the “Kd 2” value turned out to be 0.0241 s⁻¹.

B6: mAb3 (antibody, V domains shown)
VH: QVQLVQSGAEVKKPGASVKVSCKASGYTFNGYYIHWVRQAPGQGLEWMGWINSNSGGTKYAQKFQGRVTMTRDTSISTAYMELSRLRSDDTAVYYCARRHSDMIGYYYGMDVWGQGTTVTVSS
VL: DIQMTQSPSSVSASVGDRVTITCRASQGISSWLAWYQQKPGKAPKLLIYAASSLQSGVPSRFSGSGSGTDFTLTISSLQPEDFATYYCQQATDFPPTFGGGTKVEIKR
A word on the koff: it is the rate constant with which the complex falls apart. Usually kon stands for the rate constant with which the complex forms. Regarding B6, in experiment [3], the “Kd 2” value amounted to 8.6e-05 s⁻¹. In experiment [7], the dissociation rate constant (koff) was 0.00379 s⁻¹. For the same molecule, in experiment [8], the on-rate constant (kon) is 56300 M⁻¹ s⁻¹.

B7: mAb6 (antibody, V domains shown)
VH: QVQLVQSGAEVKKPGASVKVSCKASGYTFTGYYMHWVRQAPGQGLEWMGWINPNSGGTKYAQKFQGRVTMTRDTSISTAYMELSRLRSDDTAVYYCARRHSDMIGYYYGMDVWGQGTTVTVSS
VL: B6 VL with V11L, G28S, S31L, W32F, A34N, A50T, T92N, D93S, E105D
Turning to B7, the Kd in experiment [2] worked out at 0.319 nM.
